Results as given in IntAct's records for PubMed 28258151.

B1: Complement factor H (Homo sapiens), P08603 (parent)
chain: MRLLAKIICLMLWAICVAEDCNELPPRRNTEILTGSWSDQTYPEGTQAIYKCRPGYRSLGNVIMVCRKGEWVALNPLRKCQKRPCGHPGDTPFGTFTLTGGNVFEYGVKAVYTCNEGYQLLGEINYRECDTDGWTNDIPICEVVKCLPVTAPENGKIVSSAMEPDREYHFGQAVRFVCNSGYKIEGDEEMHCSDDGFWSKEKPKCVEISCKSPDVINGSPISQKIIYKENERFQYKCNMGYEYSERGDAVCTESGWRPLPSCEEKSCDNPYIPNGDYSPLRIKHRTGDEITYQCRNGFYPATRGNTAKCTSTGWIPAPRCTLKPCDYPDIKHGGLYHENMRRPYFPVAVGKYYSYYCDEHFETPSGSYWDHIHCTQDGWSPAVPCLRKCYFPYLENGYNQNYGRKFVQGKSIDVACHPGYALPKAQTTVTCMENGWSPTPRCIRVKTCSKSSIDIENGFISESQYTYALKEKAKYQCKLGYVTADGETSGSITCGKDGWSAQPTCIKSCDIPVFMNARTKNDFTWFKLNDTLDYECHDGYESNTGSTTGSIVCGYNGWSDLPICYERECELPKIDVHLVPDRKKDQYKVGEVLKFSCKPGFTIVGPNSVQCYHFGLSPDLPICKEQVQSCGPPPELLNGNVKEKTKEEYGHSEVVEYYCNPRFLMKGPNKIQCVDGEWTTLPVCIVEESTCGDIPELEHGWAQLSSPPYYYGDSVEFNCSESFTMIGHRSITCIHGVWTQLPQCVAIDKLKKCKSSNLIILEEHLKNKKEFDHNSNIRYRCRGKEGWIHTVCINGRWDPEVNCSMAQIQLCPPPPQIPNSHNMTTTLNYRDGEKVSVLCQENYLIQEGEEITCKDGRWQSIPLCVEKIPCSQPPQIEHGTINSSRSSQESYAHGTKLSYTCEGGFRISEENETTCYMGKWSSPPQCEGLPCKSPPEISHGVVAHMSDSYQYGEEVTYKCFEGFGIDGPAIAKCLGEKWSHPPSCIKTDCLSLPSFENAIPMGEKKDVYKAGEQVTYTCATYYKMDGASNVTCINSRWTGRPTCRDTSCVNPPTVQNAYIVSRQMSKYPSGERVRYQCRSPYEMFGDEEVMCLNGNWTEPPQCKDSTGKCGPPPPIDNGDITSFPLSVYAPASSVEYQCQNLYQLEGNKRITCRNGQWSEPPKCLHPCVISREIMENYNIALRWTAKQKLYSRTGESVEFVCKRGYRLSSRSHTLRTTCWDGKLEYPTCAKR

Variants of: B1
Conditions: with sdre_staam sdrE

Variant	effect of a mutation on the interaction
K1222A	with no effect
L1207A	decreasing interaction
T1216A	increasing interaction
R1215A	with no effect
T1213A	increasing interaction
C1218A	increasing interaction
W1219A	with no effect
T1217A	with no effect
S1211A	decreasing interaction
S1209A	decreasing interaction
P1226A	decreasing interaction
Y1225A	increasing interaction
E1224A	increasing interaction
D1220A	with no effect
S1208A	disrupting interaction
L1223A	increasing interaction
H1212A	increasing interaction
R1210A	increasing interaction
R1206A	disrupting interaction
L1214A	increasing interaction
